# From the supplement of paper PMC9732359
# ± gives the uncertainty stated by the source.
# Experiment: protein stability index of a GFP-peptide fusion (yeast GPS) (PSI 1-4); higher = more stable; sorted into four equal gates, so the index is relative within each strain
# Method in brief: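 Peptides tiling yeast proteins in 17-residue segments were fused downstream of GFP, with Cherry expressed from the same plasmid. As a pooled library in yeast, mid-log cultures grown in leucine-free medium were sorted into four equal gates by GFP/Cherry fluorescence ratio. Gate plasmids were PCR-amplified and Illumina-sequenced, and barcodes linked reads to strains. Each peptide received a protein stability index equal to the sum of each gate's read frequency times its gate number.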
sequence,measurement,setting,value
SPVSSVHTANFSERGSN [MED2],protein stability index,doa10∆,2.71 ± 0.083
same,protein stability index,pdr5∆,2.82 ± 0.068
same,protein stability index,san1∆,2.53 ± 0.072
same,protein stability index,ubr1∆,2.86 ± 0.044
SPVYDVDPRIINSENDY [NUT1],protein stability index,doa10∆,2.92 ± 0.08
same,protein stability index,pdr5∆,3.02 ± 0.074
same,protein stability index,san1∆,2.39 ± 0.08
same,protein stability index,ubr1∆,2.76 ± 0.059
SPYNADFDGDEMNLHVP [RPO21],protein stability index,doa10∆,3.15 ± 0.076
same,protein stability index,pdr5∆,3.27 ± 0.068
same,protein stability index,san1∆,3.15 ± 0.078
same,protein stability index,ubr1∆,3.1 ± 0.061
SQCRLHELREKERISVA [PRE2],protein stability index,doa10∆,2.25 ± 0.11
same,protein stability index,pdr5∆,2.59 ± 0.097
same,protein stability index,san1∆,2.87 ± 0.097
same,protein stability index,ubr1∆,1.67 ± 0.04
SQEREFSLLVKAEIPPE [SIN4],protein stability index,doa10∆,3.04 ± 0.1
same,protein stability index,pdr5∆,2.98 ± 0.072
same,protein stability index,san1∆,2.96 ± 0.073
same,protein stability index,ubr1∆,2.83 ± 0.061
SQESINQKLALVIKSGK [RPL30],protein stability index,doa10∆,2.32 ± 0.097
same,protein stability index,pdr5∆,2.65 ± 0.13
same,protein stability index,san1∆,2.31 ± 0.11
same,protein stability index,ubr1∆,2.4 ± 0.058
SQFNGSGNGSNPNTNTN [PGD1],protein stability index,doa10∆,2.48 ± 0.072
same,protein stability index,pdr5∆,2.68 ± 0.068
same,protein stability index,san1∆,2.84 ± 0.076
same,protein stability index,ubr1∆,2.89 ± 0.034
SQHGQGNNPSWVNNPKK [YDL088C/ASM4],protein stability index,doa10∆,3.2 ± 0.14
same,protein stability index,pdr5∆,3.52 ± 0.16
SQKAKLMTFNAETKSYD [YLR335W/NUP2],protein stability index,doa10∆,2.55 ± 0.065
same,protein stability index,pdr5∆,2.27 ± 0.046
same,protein stability index,san1∆,2.3 ± 0.057
same,protein stability index,ubr1∆,2.92 ± 0.053
SQQNIVPNSSDQAELPN [SNF2],protein stability index,doa10∆,2.73 ± 0.06
same,protein stability index,pdr5∆,2.67 ± 0.079
same,protein stability index,san1∆,3.04 ± 0.057
same,protein stability index,ubr1∆,3.01 ± 0.069
SQSSNANICLTFLESIN [SIN4],protein stability index,doa10∆,2.42 ± 0.048
same,protein stability index,pdr5∆,2.61 ± 0.054
same,protein stability index,san1∆,2.55 ± 0.05
same,protein stability index,ubr1∆,2.74 ± 0.048
SQTMAETYVASYVVPRL [ECM29],protein stability index,doa10∆,1.85 ± 0.042
same,protein stability index,pdr5∆,1.82 ± 0.049
same,protein stability index,san1∆,1.9 ± 0.069
same,protein stability index,ubr1∆,2 ± 0.038
SQTTQLAGMDVEDALDK [FAS2],protein stability index,doa10∆,3.31 ± 0.094
same,protein stability index,pdr5∆,3.47 ± 0.11
same,protein stability index,san1∆,3.31 ± 0.083
same,protein stability index,ubr1∆,3.62 ± 0.071
SQWNDSSIDKIEDRDFL [SIR3],protein stability index,doa10∆,2.99 ± 0.17
same,protein stability index,pdr5∆,3.21 ± 0.27
same,protein stability index,san1∆,3.23 ± 0.28
same,protein stability index,ubr1∆,3.32 ± 0.15
SQYSTMVNIGLHNLNEY [RGR1],protein stability index,doa10∆,1.16 ± 0.14
same,protein stability index,pdr5∆,2.09 ± 0.1
same,protein stability index,san1∆,1.16 ± 0.09
same,protein stability index,ubr1∆,1.25 ± 0.13
SRDLDISSSTQCLRFLK [POP6],protein stability index,doa10∆,2.46 ± 0.1
same,protein stability index,pdr5∆,2.24 ± 0.05
same,protein stability index,san1∆,2.7 ± 0.14
same,protein stability index,ubr1∆,3.05 ± 0.061
SRGIVIGSGAMSPLECR [RPP1],protein stability index,doa10∆,1.69 ± 0.031
same,protein stability index,pdr5∆,2.34 ± 0.048
same,protein stability index,san1∆,2.12 ± 0.069
same,protein stability index,ubr1∆,2.44 ± 0.036
SRSRSSIRSISPAGKYK [ESC2],protein stability index,doa10∆,2.84 ± 0.14
same,protein stability index,pdr5∆,2.96 ± 0.099
same,protein stability index,san1∆,3.17 ± 0.064
same,protein stability index,ubr1∆,3.14 ± 0.085
SRSTEKKNDMNTSAKNK [SIR4],protein stability index,doa10∆,2.52 ± 0.051
same,protein stability index,pdr5∆,2.66 ± 0.05
same,protein stability index,san1∆,2.9 ± 0.052
same,protein stability index,ubr1∆,2.88 ± 0.047
SSDGALCMDSSYIGTII [POP1],protein stability index,doa10∆,3.09 ± 0.09
same,protein stability index,pdr5∆,2.71 ± 0.083
same,protein stability index,san1∆,3.04 ± 0.12
same,protein stability index,ubr1∆,3.23 ± 0.14
SSEILSYLSNSLDTSAS [YML103C/NUP188],protein stability index,doa10∆,2.96 ± 0.091
same,protein stability index,pdr5∆,2.7 ± 0.069
same,protein stability index,san1∆,2.25 ± 0.063
same,protein stability index,ubr1∆,2.65 ± 0.055
SSENNQIILAYIKYNIL [SRP68],protein stability index,doa10∆,3.06 ± 0.065
same,protein stability index,pdr5∆,2.82 ± 0.074
same,protein stability index,san1∆,2.92 ± 0.076
same,protein stability index,ubr1∆,2.88 ± 0.062
SSFSKKTLTEEVTKSSH [YIL149C/MLP2],protein stability index,doa10∆,2.69 ± 0.054
same,protein stability index,pdr5∆,2.88 ± 0.058
same,protein stability index,san1∆,2.77 ± 0.071
same,protein stability index,ubr1∆,3.09 ± 0.048
SSIQESLLSLVGHLSIL [ECM29],protein stability index,doa10∆,2.01 ± 0.045
same,protein stability index,pdr5∆,1.75 ± 0.043
same,protein stability index,san1∆,1.83 ± 0.053
same,protein stability index,ubr1∆,1.6 ± 0.025
SSISVMGENEKPDVTYA [RPT3],protein stability index,doa10∆,2.92 ± 0.2
same,protein stability index,pdr5∆,3.25 ± 0.1
same,protein stability index,san1∆,3.12 ± 0.11
same,protein stability index,ubr1∆,3.27 ± 0.083
SSLALVFALHKYKPTPL [SMC4],protein stability index,doa10∆,2.18 ± 0.052
same,protein stability index,pdr5∆,2.18 ± 0.074
same,protein stability index,san1∆,2.17 ± 0.088
same,protein stability index,ubr1∆,2.93 ± 0.055
SSLEELLLKDQQTAKKL [ECM29],protein stability index,doa10∆,2.82 ± 0.091
same,protein stability index,pdr5∆,2.99 ± 0.077
same,protein stability index,san1∆,2.92 ± 0.1
same,protein stability index,ubr1∆,2.95 ± 0.058
SSLLSRLISSKMPGGFT [FAS2],protein stability index,doa10∆,2.51 ± 0.069
same,protein stability index,pdr5∆,2.41 ± 0.08
same,protein stability index,san1∆,2.17 ± 0.094
same,protein stability index,ubr1∆,2.89 ± 0.064
SSLRNQELLNAETLCFT [RPN3],protein stability index,doa10∆,2.89 ± 0.11
same,protein stability index,pdr5∆,3.02 ± 0.15
same,protein stability index,san1∆,3.22 ± 0.065
same,protein stability index,ubr1∆,3.11 ± 0.091
SSNIVNENDSQAIITER [YIL149C/MLP2],protein stability index,doa10∆,3.14 ± 0.12
same,protein stability index,pdr5∆,2.93 ± 0.086
same,protein stability index,san1∆,2.07 ± 0.26
same,protein stability index,ubr1∆,2.86 ± 0.057
SSNLYETIIEADKSLPS [YJR042W/NUP85],protein stability index,doa10∆,2.76 ± 0.054
same,protein stability index,pdr5∆,2.97 ± 0.052
same,protein stability index,san1∆,2.94 ± 0.039
same,protein stability index,ubr1∆,2.96 ± 0.061
SSNPQSAYVKAFYQKGN [SMC1],protein stability index,doa10∆,1.87 ± 0.049
same,protein stability index,pdr5∆,1.98 ± 0.047
same,protein stability index,san1∆,1.96 ± 0.052
same,protein stability index,ubr1∆,1.95 ± 0.033
SSNSQQSTPQPDDMVEI [ITC1],protein stability index,doa10∆,3.09 ± 0.064
same,protein stability index,pdr5∆,2.74 ± 0.059
same,protein stability index,san1∆,2.58 ± 0.054
same,protein stability index,ubr1∆,2.87 ± 0.047
SSNVQQPQQQLGDMENN [RTT102],protein stability index,doa10∆,3.21 ± 0.19
same,protein stability index,pdr5∆,3.29 ± 0.12
same,protein stability index,san1∆,3.11 ± 0.088
same,protein stability index,ubr1∆,3.21 ± 0.17
SSRFIKGGSLYGLGLIY [RPN2],protein stability index,doa10∆,2.07 ± 0.09
same,protein stability index,pdr5∆,2.1 ± 0.088
same,protein stability index,san1∆,2.38 ± 0.061
same,protein stability index,ubr1∆,1.99 ± 0.06
SSRLEFVKGISRDIKAL [YML103C/NUP188],protein stability index,doa10∆,2.39 ± 0.081
same,protein stability index,pdr5∆,1.81 ± 0.057
same,protein stability index,san1∆,1.99 ± 0.085
same,protein stability index,ubr1∆,1.62 ± 0.04
SSTDFSTCIVSLIRNNL [ECM29],protein stability index,doa10∆,2.7 ± 0.066
same,protein stability index,pdr5∆,2.99 ± 0.092
same,protein stability index,san1∆,2.41 ± 0.063
same,protein stability index,ubr1∆,2.88 ± 0.054
SSTITGDVVLAAAYSHE [RPL5],protein stability index,doa10∆,2.32 ± 0.056
same,protein stability index,pdr5∆,2.56 ± 0.06
same,protein stability index,san1∆,2.61 ± 0.057
same,protein stability index,ubr1∆,2.31 ± 0.058
SSTKPPGSVNSAAKYKD [NUT1],protein stability index,doa10∆,2.68 ± 0.064
same,protein stability index,pdr5∆,2.64 ± 0.061
same,protein stability index,san1∆,2.53 ± 0.1
same,protein stability index,ubr1∆,2.93 ± 0.065
SSVNEDTFLPPPPPPPS [PRP8],protein stability index,doa10∆,2.73 ± 0.041
same,protein stability index,pdr5∆,2.72 ± 0.04
same,protein stability index,san1∆,2.44 ± 0.038
same,protein stability index,ubr1∆,2.46 ± 0.037
STAIKSLVALGIDPQDL [CDC53],protein stability index,doa10∆,2.29 ± 0.077
same,protein stability index,pdr5∆,2.67 ± 0.066
same,protein stability index,san1∆,2.81 ± 0.053
same,protein stability index,ubr1∆,2.45 ± 0.049
STATRNVTMIDDLIHFT [COR1],protein stability index,doa10∆,2.68 ± 0.097
same,protein stability index,pdr5∆,2.81 ± 0.092
same,protein stability index,san1∆,2.82 ± 0.086
same,protein stability index,ubr1∆,2.89 ± 0.085
STGDYTFTIQLLKLTKV [YML103C/NUP188],protein stability index,doa10∆,1.58 ± 0.075
same,protein stability index,pdr5∆,2.92 ± 0.13
same,protein stability index,san1∆,2.16 ± 0.12
same,protein stability index,ubr1∆,2.51 ± 0.11
STIPTRENGKGGQIAHI [ROX3],protein stability index,doa10∆,3.01 ± 0.11
same,protein stability index,pdr5∆,3.17 ± 0.092
same,protein stability index,san1∆,2.98 ± 0.052
same,protein stability index,ubr1∆,2.97 ± 0.19
STKSNKTRNPLTHSTPK [RPL8A],protein stability index,doa10∆,2.44 ± 0.29
same,protein stability index,pdr5∆,1.95 ± 0.14
same,protein stability index,ubr1∆,1.88 ± 0.15
STLQHFQETLDSTVVYP [MED8],protein stability index,doa10∆,2.99 ± 0.068
same,protein stability index,pdr5∆,3.11 ± 0.055
same,protein stability index,san1∆,2.96 ± 0.055
same,protein stability index,ubr1∆,3.17 ± 0.041
STSFSFNAPATGNGTTT [YOR098C/NUP1],protein stability index,doa10∆,2.73 ± 0.042
same,protein stability index,pdr5∆,2.97 ± 0.037
same,protein stability index,san1∆,3.03 ± 0.033
same,protein stability index,ubr1∆,3.005 ± 0.028
STSLGIPDFRSSEGFYS [SIR2],protein stability index,doa10∆,1.85 ± 0.27
same,protein stability index,pdr5∆,1.62 ± 0.089
same,protein stability index,ubr1∆,3.36 ± 0.14
STVKKKDIVNISIPKTC [REC8],protein stability index,doa10∆,2.71 ± 0.088
same,protein stability index,pdr5∆,2.41 ± 0.063
same,protein stability index,san1∆,2.53 ± 0.084
same,protein stability index,ubr1∆,2.62 ± 0.054
SVALHRHSNALVDILPP [RPT3],protein stability index,doa10∆,1.63 ± 0.047
same,protein stability index,pdr5∆,2.1 ± 0.056
same,protein stability index,san1∆,2 ± 0.07
same,protein stability index,ubr1∆,1.94 ± 0.041
SVANTPSEIPDAHKAEQ [SWI3],protein stability index,doa10∆,3.04 ± 0.066
same,protein stability index,pdr5∆,3.25 ± 0.065
same,protein stability index,san1∆,3.42 ± 0.077
same,protein stability index,ubr1∆,3.03 ± 0.061
SVDDVLSALDHIGHSAL [DPB4],protein stability index,doa10∆,3.26 ± 0.2
same,protein stability index,pdr5∆,3.53 ± 0.18
same,protein stability index,san1∆,3.27 ± 0.083
same,protein stability index,ubr1∆,3.46 ± 0.069
